Laboratory results: the supplement of paper PMC9112550, “Optimization of the antimicrobial peptide Bac7 by deep mutational scanning” (BMC Biology, 2022)

tested on: Escherichia coli TOP10; test: shrunken log2 fold change of peptide-encoding DNA abundance (4.5 h post-induction vs induction); higher = less antimicrobial activity (less host growth inhibition); conditions: time post-induction: 4.5 h; library: site-saturation at positions 5, 18, 19, 20
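Also: peptides expressed intracellularly from a pBAD plasmid library in pooled LB shake-flask culture, induced with 0.3% L-arabinose, DNA abundance read by NGS, three biological replicates, DESeq2 with apeglm shrinkage.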

| Sequence | shrunken log2 fold change |
| --- | --- |
| RRIRLRPPRLPRPRPRPHFLPRP | -0.499 |
| RRIRLRPPRLPRPRPRPHHHPRP | -0.6 |
| RRIRLRPPRLPRPRPRPHKHPRP | -0.53 |
| RRIRLRPPRLPRPRPRPHKIPRP | -0.0592 |
| RRIRLRPPRLPRPRPRPHKYPRP | -0.559 |
| RRIRLRPPRLPRPRPRPHMRPRP | 0.125 |
| RRIRLRPPRLPRPRPRPHNSPRP | -0.492 |
| RRIRLRPPRLPRPRPRPHNVPRP | 0.0245 |
| RRIRLRPPRLPRPRPRPHNWPRP | -0.0581 |
| RRIRLRPPRLPRPRPRPHPSPRP | -0.0856 |
| RRIRLRPPRLPRPRPRPHSQPRP | -0.0709 |
| RRIRLRPPRLPRPRPRPHSWPRP | 0.0861 |
| RRIRLRPPRLPRPRPRPHTPPRP | -0.295 |
| RRIRLRPPRLPRPRPRPHTQPRP | -0.31 |
| RRIRLRPPRLPRPRPRPHTTPRP | -0.368 |
| RRIRLRPPRLPRPRPRPHTYPRP | -0.257 |
| RRIRLRPPRLPRPRPRPHWLPRP | -0.0104 |
| RRIRLRPPRLPRPRPRPHYTPRP | -0.118 |
| RRIRLRPPRLPRPRPRPIAGPRP | -0.086 |
| RRIRLRPPRLPRPRPRPICGPRP | -0.0025 |
| RRIRLRPPRLPRPRPRPICSPRP | -0.0252 |
| RRIRLRPPRLPRPRPRPICVPRP | 0.151 |
| RRIRLRPPRLPRPRPRPIDRPRP | -0.241 |
| RRIRLRPPRLPRPRPRPIECPRP | 0.0614 |
| RRIRLRPPRLPRPRPRPIEFPRP | -0.449 |

| Sequence | shrunken log2 fold change |
| --- | --- |
| RRIRLRPPRLPRPRPRPIHTPRP | -0.133 |
| RRIRLRPPRLPRPRPRPIHWPRP | 0.143 |
| RRIRLRPPRLPRPRPRPIIAPRP | -0.0536 |
| RRIRLRPPRLPRPRPRPIKHPRP | -0.821 |
| RRIRLRPPRLPRPRPRPIKKPRP | 0.0365 |
| RRIRLRPPRLPRPRPRPIKMPRP | -0.347 |
| RRIRLRPPRLPRPRPRPIKNPRP | -0.317 |
| RRIRLRPPRLPRPRPRPILLPRP | -0.235 |
| RRIRLRPPRLPRPRPRPIMNPRP | -0.381 |
| RRIRLRPPRLPRPRPRPINFPRP | -0.426 |
| RRIRLRPPRLPRPRPRPINYPRP | -0.857 |
| RRIRLRPPRLPRPRPRPIPDPRP | 0.00718 |
| RRIRLRPPRLPRPRPRPIPMPRP | 0.0494 |
| RRIRLRPPRLPRPRPRPIRRPRP | 0.0431 |
| RRIRLRPPRLPRPRPRPISDPRP | -0.014 |
| RRIRLRPPRLPRPRPRPISNPRP | -0.17 |
| RRIRLRPPRLPRPRPRPIWDPRP | -0.0847 |
| RRIRLRPPRLPRPRPRPIWIPRP | -0.134 |
| RRIRLRPPRLPRPRPRPIYDPRP | -1 |
| RRIRLRPPRLPRPRPRPIYFPRP | -0.37 |
| RRIRLRPPRLPRPRPRPKAAPRP | 0.679 |
| RRIRLRPPRLPRPRPRPKCQPRP | -0.319 |
| RRIRLRPPRLPRPRPRPKEQPRP | 0.0445 |
| RRIRLRPPRLPRPRPRPKEVPRP | -0.147 |
| RRIRLRPPRLPRPRPRPKFEPRP | 0.0662 |

| Sequence | shrunken log2 fold change |
| --- | --- |
| RRIRLRPPRLPRPRPRPKKYPRP | -0.143 |
| RRIRLRPPRLPRPRPRPKMDPRP | -0.428 |
| RRIRLRPPRLPRPRPRPKMMPRP | -0.167 |
| RRIRLRPPRLPRPRPRPKNEPRP | -0.198 |
| RRIRLRPPRLPRPRPRPKQEPRP | -0.00888 |
| RRIRLRPPRLPRPRPRPKSNPRP | -0.172 |
| RRIRLRPPRLPRPRPRPKTLPRP | -0.0582 |
| RRIRLRPPRLPRPRPRPKTPPRP | 0.526 |
| RRIRLRPPRLPRPRPRPKVRPRP | 0.316 |
| RRIRLRPPRLPRPRPRPKVSPRP | 0.0482 |
| RRIRLRPPRLPRPRPRPKWEPRP | -0.00197 |
| RRIRLRPPRLPRPRPRPKWPPRP | 0.279 |
| RRIRLRPPRLPRPRPRPKYEPRP | -0.0397 |
| RRIRLRPPRLPRPRPRPKYQPRP | -0.141 |
| RRIRLRPPRLPRPRPRPLCEPRP | 0.0911 |
| RRIRLRPPRLPRPRPRPLEFPRP | -0.252 |
| RRIRLRPPRLPRPRPRPLEHPRP | 0.0313 |
| RRIRLRPPRLPRPRPRPLFVPRP | -0.329 |
| RRIRLRPPRLPRPRPRPLINPRP | -0.519 |
| RRIRLRPPRLPRPRPRPLMCPRP | -0.422 |
| RRIRLRPPRLPRPRPRPLNIPRP | -0.221 |
| RRIRLRPPRLPRPRPRPLNKPRP | -0.264 |
| RRIRLRPPRLPRPRPRPLNVPRP | 0.0831 |
| RRIRLRPPRLPRPRPRPLPHPRP | -0.309 |
| RRIRLRPPRLPRPRPRPLPQPRP | 0.0529 |

| Sequence | shrunken log2 fold change |
| --- | --- |
| RRIRLRPPRLPRPRPRPLPYPRP | 0.514 |
| RRIRLRPPRLPRPRPRPLQFPRP | 0.0239 |
| RRIRLRPPRLPRPRPRPLSFPRP | -0.15 |
| RRIRLRPPRLPRPRPRPLTPPRP | 0.62 |
| RRIRLRPPRLPRPRPRPLTYPRP | -0.448 |
| RRIRLRPPRLPRPRPRPLVEPRP | 0.222 |
| RRIRLRPPRLPRPRPRPLVSPRP | 0.0156 |
| RRIRLRPPRLPRPRPRPLWSPRP | 0.0537 |
| RRIRLRPPRLPRPRPRPLYFPRP | -0.646 |
| RRIRLRPPRLPRPRPRPMCQPRP | 0.0751 |
| RRIRLRPPRLPRPRPRPMCWPRP | 0.0663 |
| RRIRLRPPRLPRPRPRPMDKPRP | -0.296 |
| RRIRLRPPRLPRPRPRPMDYPRP | -0.202 |
| RRIRLRPPRLPRPRPRPMERPRP | -0.00192 |
| RRIRLRPPRLPRPRPRPMGLPRP | 0.0182 |
| RRIRLRPPRLPRPRPRPMIFPRP | 0.0629 |
| RRIRLRPPRLPRPRPRPMIRPRP | -0.154 |
| RRIRLRPPRLPRPRPRPMKIPRP | -0.028 |
| RRIRLRPPRLPRPRPRPMMCPRP | 0.00205 |
| RRIRLRPPRLPRPRPRPMMGPRP | -0.0316 |
| RRIRLRPPRLPRPRPRPMQDPRP | 0.0525 |
| RRIRLRPPRLPRPRPRPMQIPRP | 0.057 |
| RRIRLRPPRLPRPRPRPMRAPRP | 0.862 |
| RRIRLRPPRLPRPRPRPMSGPRP | -0.0068 |
| RRIRLRPPRLPRPRPRPMSQPRP | -0.219 |

| Sequence | shrunken log2 fold change |
| --- | --- |
| RRIRLRPPRLPRPRPRPMYGPRP | -0.179 |
| RRIRLRPPRLPRPRPRPNCTPRP | -0.24 |
| RRIRLRPPRLPRPRPRPNDLPRP | -0.00842 |
| RRIRLRPPRLPRPRPRPNDMPRP | -0.258 |
| RRIRLRPPRLPRPRPRPNDNPRP | -0.557 |
| RRIRLRPPRLPRPRPRPNECPRP | -0.0751 |
| RRIRLRPPRLPRPRPRPNFHPRP | -0.301 |
| RRIRLRPPRLPRPRPRPNGQPRP | 0.00827 |
| RRIRLRPPRLPRPRPRPNGYPRP | -0.315 |
| RRIRLRPPRLPRPRPRPNIPPRP | -0.823 |
| RRIRLRPPRLPRPRPRPNLPPRP | -0.508 |
| RRIRLRPPRLPRPRPRPNMGPRP | -0.25 |
| RRIRLRPPRLPRPRPRPNNHPRP | -0.761 |
| RRIRLRPPRLPRPRPRPNPNPRP | 0.395 |
| RRIRLRPPRLPRPRPRPNQHPRP | -0.222 |
| RRIRLRPPRLPRPRPRPNTAPRP | -0.248 |
| RRIRLRPPRLPRPRPRPPAFPRP | 0.144 |
| RRIRLRPPRLPRPRPRPPAKPRP | 0.529 |
| RRIRLRPPRLPRPRPRPPCTPRP | 0.036 |
| RRIRLRPPRLPRPRPRPPHNPRP | 0.504 |
| RRIRLRPPRLPRPRPRPPINPRP | -0.00991 |
| RRIRLRPPRLPRPRPRPPITPRP | -0.213 |
| RRIRLRPPRLPRPRPRPPKVPRP | 0.287 |
| RRIRLRPPRLPRPRPRPPLMPRP | 0.313 |
| RRIRLRPPRLPRPRPRPPLNPRP | 0.0486 |

| Sequence | shrunken log2 fold change |
| --- | --- |
| RRIRLRPPRLPRPRPRPPMTPRP | 0.907 |
| RRIRLRPPRLPRPRPRPPMVPRP | -0.192 |
| RRIRLRPPRLPRPRPRPPPIPRP | 0.935 |
| RRIRLRPPRLPRPRPRPPQCPRP | -0.313 |
| RRIRLRPPRLPRPRPRPPQDPRP | 0.348 |
| RRIRLRPPRLPRPRPRPPRAPRP | 0.875 |
| RRIRLRPPRLPRPRPRPPRIPRP | 0.0531 |
| RRIRLRPPRLPRPRPRPPRPPRP | 0.782 |
| RRIRLRPPRLPRPRPRPPSHPRP | 0.0809 |
| RRIRLRPPRLPRPRPRPPSIPRP | -0.0597 |
| RRIRLRPPRLPRPRPRPPSRPRP | 0.175 |
| RRIRLRPPRLPRPRPRPPVHPRP | 0.0348 |
| RRIRLRPPRLPRPRPRPPVKPRP | -0.0732 |
| RRIRLRPPRLPRPRPRPPVNPRP | 0.168 |
| RRIRLRPPRLPRPRPRPPWSPRP | 0.259 |
| RRIRLRPPRLPRPRPRPPYEPRP | -0.468 |
| RRIRLRPPRLPRPRPRPQCYPRP | -0.172 |
| RRIRLRPPRLPRPRPRPQDPPRP | -0.101 |
| RRIRLRPPRLPRPRPRPQFDPRP | -0.293 |
| RRIRLRPPRLPRPRPRPQGDPRP | -0.0165 |
| RRIRLRPPRLPRPRPRPQHAPRP | -0.0395 |
| RRIRLRPPRLPRPRPRPQHRPRP | -0.0199 |
| RRIRLRPPRLPRPRPRPQHTPRP | -0.418 |
| RRIRLRPPRLPRPRPRPQHWPRP | -0.044 |
| RRIRLRPPRLPRPRPRPQICPRP | -0.0895 |
